T1: human E-selectin extracellular domain with 10 His purification tail (human, UniProt P16581 22-556)
T1 construct: also called soluable human E-selectin extracellular domain; rhE-Selectin
T1 sequence: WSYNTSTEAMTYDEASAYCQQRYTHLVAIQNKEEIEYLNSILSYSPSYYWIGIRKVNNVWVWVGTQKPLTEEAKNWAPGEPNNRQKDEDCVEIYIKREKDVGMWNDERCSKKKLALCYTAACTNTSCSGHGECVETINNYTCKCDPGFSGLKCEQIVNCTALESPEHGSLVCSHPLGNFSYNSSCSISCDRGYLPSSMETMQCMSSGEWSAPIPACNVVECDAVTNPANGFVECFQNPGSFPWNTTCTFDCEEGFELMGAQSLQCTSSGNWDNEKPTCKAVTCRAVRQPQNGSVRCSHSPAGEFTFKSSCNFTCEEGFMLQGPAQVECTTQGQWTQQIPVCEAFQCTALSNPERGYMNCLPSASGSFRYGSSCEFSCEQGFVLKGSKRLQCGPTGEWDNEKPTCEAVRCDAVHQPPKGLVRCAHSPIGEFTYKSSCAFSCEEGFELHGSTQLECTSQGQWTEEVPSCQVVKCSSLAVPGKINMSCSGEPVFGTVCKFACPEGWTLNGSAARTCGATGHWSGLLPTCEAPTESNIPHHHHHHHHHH

T2: mouse E-selectin extracellular domain with 10 His purification tail (mouse, UniProt Q00690 22-557)
T2 construct: also called soluable mouse E-selectin extracellular domain; muE-Selctin
T2 sequence: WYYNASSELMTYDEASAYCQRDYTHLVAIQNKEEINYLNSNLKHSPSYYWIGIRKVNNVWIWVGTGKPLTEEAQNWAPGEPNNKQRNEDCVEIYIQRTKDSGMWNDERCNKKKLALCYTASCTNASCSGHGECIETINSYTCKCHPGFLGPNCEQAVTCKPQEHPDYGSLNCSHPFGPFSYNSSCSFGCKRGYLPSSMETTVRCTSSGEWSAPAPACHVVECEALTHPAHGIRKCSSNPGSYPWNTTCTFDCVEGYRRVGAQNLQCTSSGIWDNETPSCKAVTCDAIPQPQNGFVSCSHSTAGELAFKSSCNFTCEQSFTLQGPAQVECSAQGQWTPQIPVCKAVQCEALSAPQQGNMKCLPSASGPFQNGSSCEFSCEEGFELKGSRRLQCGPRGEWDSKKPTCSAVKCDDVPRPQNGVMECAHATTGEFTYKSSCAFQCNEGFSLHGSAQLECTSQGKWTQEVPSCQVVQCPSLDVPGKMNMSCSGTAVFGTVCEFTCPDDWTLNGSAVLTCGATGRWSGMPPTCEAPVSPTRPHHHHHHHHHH

T3: human E-selectin, cell-surface expressed (human, UniProt P16581 22-610)
T3 construct: also called CHO-human E-selectin cells; human CHO-E
T3 sequence: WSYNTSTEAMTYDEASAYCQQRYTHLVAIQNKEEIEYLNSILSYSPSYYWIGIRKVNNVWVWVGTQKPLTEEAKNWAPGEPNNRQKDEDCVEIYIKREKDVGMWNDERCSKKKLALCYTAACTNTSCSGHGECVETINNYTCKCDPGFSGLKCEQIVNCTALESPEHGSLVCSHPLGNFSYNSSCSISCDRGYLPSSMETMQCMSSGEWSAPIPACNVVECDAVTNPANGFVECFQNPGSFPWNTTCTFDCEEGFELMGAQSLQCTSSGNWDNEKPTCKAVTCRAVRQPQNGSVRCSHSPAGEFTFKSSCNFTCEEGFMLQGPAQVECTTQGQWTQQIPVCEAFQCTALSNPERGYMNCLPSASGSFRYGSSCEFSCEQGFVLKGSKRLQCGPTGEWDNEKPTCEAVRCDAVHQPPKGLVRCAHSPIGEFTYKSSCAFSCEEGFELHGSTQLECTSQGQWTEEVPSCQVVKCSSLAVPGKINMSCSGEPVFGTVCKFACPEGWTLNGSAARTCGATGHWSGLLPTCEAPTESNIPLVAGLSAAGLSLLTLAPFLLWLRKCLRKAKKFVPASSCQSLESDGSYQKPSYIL


Tests used:
[1] = target: T1, human E-selectin extracellular domain …; experiment: antigen binding ELISA, HRP detection
Method: (§1) 384-well Maxisorp plates were used to capture the human and mouse His-tagged recombinant E-selectin polypeptides. The polypeptides were incubated with chimeric antibodies of varying concentrations and detected with HRP-labeled anti-human IgG1 antibodies.

[2] = target: T2, mouse E-selectin extracellular domain …; experiment: antigen binding ELISA, HRP detection
Method: as §1

[3] = target: T3, human E-selectin, cell-surface expressed; experiment: competition ELISA on CHO cells vs sialyl Lewis ligand-PAA-biotin/SA-HRP
Method: In a static ligand cellular adhesion assay, horse radish peroxidase (HRP) conjugated E-selectin ligand (sialyl Lewis antigen) and E-selectin antibodies compete for binding to human or cynomolgus E-selectin expressed on Chinese hamster ovary (CHO) cells. The ability of anti-E-selectin antibodies to neutralize ligand binding was assessed in a static neutralization assay using a competition enzyme-linked immunosorbent assay (ELISA) to evaluate the neutralization of the sialyl Lewis antigen to Chinese hamster ovary cells (CHO) engineered to express human or cynomolgus monkey E-selectin.
CHO cells expressing E-selectin were seeded at 12,500 cells per well into a 96 well tissue culture plate and incubated at 37° C., 5% CO₂ for 48 hours to form a confluent monolayer. Plates were subsequently washed twice with 200 μL of calcium magnesium free PBS. Anti-E-selectin antibodies or an IgG1 isotype control (IgG control) were added to the assay in the presence of a small synthetic conjugate of biotinylated, sialyl Lewis A polyacrylamide (Carbosynth LLC, OS45446) or sialyl Lewis X polyacrylamide (Glycotech, 01-045) with streptavidin/horseradish peroxidase (100 μL total) and incubated at 37° C., 5% CO₂ for 2 hours. Plates were then washed twice with 200 μL of calcium and magnesium free PBS. Following the incubation, the cells were washed twice with 200 μL of wash buffer containing 2 mM of calcium chloride (50 mM TRIS [trisaminomethane], 150 mM sodium chloride; 0.05% polysorbate 20, pH 7.4; 2 mM calcium chloride). Signal was developed by adding 100 μL of 1-Step Ultra TMB substrate (Thermo Scientific, 34028) and incubating for 30 minutes at room temperature. Reactions were stopped using 2 M of sulfuric acid and absorbance was read at 450 nm (Spectramax M5e). Data were analyzed and graphed using GraphPad Prism software (Version 8.0.2).

Binder	EC50 [1] [nM]	EC50 [2] [nM]	IC50 [3] [nM]
anti-E-selectin antibody 0158 chimera (antibody, human IgG1, kappa, V domains shown, rat VH/VL on effector-null human IgG1 and human kappa) VH: QVQLKESGPGLVQPSETLSLTCTVSGFSISTYNVHWLRQPPGKGLEWMGMMWSGGSPDYNSALKSRLSISRDTSKNQVFLKMNSLQSEDTTTYYCARWGGGFDYWGQGVMVTVSS VL: DIVLTQSPTTLSVTPGETVSLSCRASHSIGTNLHWYQQKTNESPRLLIKFTSQSISGIPSRFSASGSGTDFTLNINNVEFDDVSSYFCQQTQSWPLTFGSGTKLEIKR	0.03	> 133	–
anti-E-selectin antibody 0039 chimera (antibody, human IgG1, kappa, V domains shown, rat VH/VL on effector-null human IgG1 and human kappa) VH: QVQLKETGPGLVQPTQTLSITCTVSGFSLTGYYMQWVRQTPGKGLEWMGFIRSSGSTEYNSEFKSRLSISRDTSKNQVFLKMNSLKTEDTGVYYCARCPYKYSSFVYVGVMDAWGQGAPVTVSS VL: EIVMTQSPTSMSTSIGERVTLNCKASQTVGINVDWYQQTPGQPPKLLIYGASNRHTGVPDRFTGSGFGRDFTLTISNVEAEDLAVYCCLQYGSIPHTFGPGTKLELKR	0.02	> 133	–
anti-E-selectin antibody 0159 chimera (antibody, human IgG1, kappa, V domains shown, rat VH/VL on effector-null human IgG1 and human kappa) VH: EVQLQQSGAELGKPGTSVKLSCKVSGYNIRSTYMHWVSQRPGKGLEWIGRIDPANGNTIYAEKFKRKATLTADTSSNTAYMQLSQLKSDDRAIYFCAMEVRVSFEYWGQGVMVTVSS VL: DIQMTQSPSFLSASVGDRVTINCKASQNINKYLDWYQQKLGEGPKLLIYYTNNLHTGIPSRFSGSGSGTDFTLTISSLQPEDVATYFCLQHDSGYTFGAGTKLELKR	0.02	> 133	–
anti-E-selectin antibody 0170 chimera (antibody, human IgG1, kappa, V domains shown, rat VH/VL on effector-null human IgG1 and human kappa) VH: EVQLQQSGAELGKPGTSVKLSCKVSGYSIRSTYMHWVNQRPGKGLEWVGRIDPANGNTIYAERFKNKATLTADTSSNTAYMQLSQLKSDDTAIYFCAVEILGIFDYWGQGVMVTVSS VL: DIQMTQSPSFLSASVGDRVTINCKASQNIDKYLDWYQQKLGEAPKLLMYNTNSLHTGIPSRFSGSGSGTDFTLTISSLQPEDVATYFCLQHNSGYTFGAGTKLELKR	0.01	> 133	–
humanized anti-E-selectin antibody 0841 (antibody, human IgG1, kappa, V domains shown, effector-null human IgG1, kappa) VH: EVQLVESGGGLVQPGGSLRLSCAASGYNIRSSYMHWVRQAPGKGLEWVARIDPANGNTIYAEKFKIRFTISADNAKNSAYLQMNSLRAEDTAVYYCAMDLYSTSEYWGQGTLVTVSS VL: DIQMTQSPSSLSASVGDRVTITCKTSQNINRYLNWYQQKPGKAPKLLIYNANSLQTGVPSRFSGSGSGTDFTLTISSLQPEDFATYFCLQDNSWPLTFGQGTKVEIKR	–	–	2.56
optimized anti-E-selectin antibody 1282 (antibody, human IgG1, kappa, V domains shown, effector-null human IgG1, kappa) VH: EVQLVESGGGLVQPGGSLRLSCAASGYAIRSAYMHWVRQAPGKGLEWVARIDPANGNTIYVDSVEGRFTISADNAKNSAYLQMNSLRAEDTAVYYCAMDLYSTSEYWGQGTLVTVSS VL: DIQMTQSPSSLSASVGDRVTITCKTSQNIERYLNWYQQKPGKAPKLLIYAASSLQSGVPSRFSGSGSGTDFTLTISSLQPEDFATYFCLQDNAWPLTFGQGTKVEIKR	–	–	1.38
optimized anti-E-selectin antibody 1444 (antibody, human IgG1, kappa, V domains shown, effector-null human IgG1, kappa) VH: EVQLVESGGGLVQPGGSLRLSCAASGYAIRSAYMHWVRQAPGKGLEWVARIDPANGNTIYVDSVTGRFTISADNAKNSAYLQMNSLRAEDTAVYYCAMDLYSTSEYWGQGTLVTVSS VL: DIQMTQSPSSLSASVGDRVTITCKTSQNIERYLNWYQQKPGKAPKLLIYAASSLQSGVPSRFSGSGSGTDFTLTISSLQPEDFATYFCLQDNAWPLTFGQGTKVEIKR	–	–	2.89
optimized anti-E-selectin antibody 1284 (antibody, human IgG1, kappa, V domains shown, effector-null human IgG1, kappa) VH: EVQLVESGGGLVQPGGSLRLSCAASGYAIRSAYMHWVRQAPGKGLEWVARIDPANGNTIYVESVEGRFTISADNAKNSAYLQMNSLRAEDTAVYYCAMDLYSTSEYWGQGTLVTVSS VL: DIQMTQSPSSLSASVGDRVTITCKTSQNIERYLNWYQQKPGKAPKLLIYAASSLQSGVPSRFSGSGSGTDFTLTISSLQPEDFATYFCLQDNAWPLTFGQGTKVEIKR	–	–	2.77
optimized anti-E-selectin antibody 1448 (antibody, human IgG1, kappa, V domains shown, effector-null human IgG1, kappa) VH: EVQLVESGGGLVQPGGSLRLSCAASGYAIRSAYMHWVRQAPGKGLEWVARIDPANGNTIYVDSVKERFTISADNAKNSAYLQMNSLRAEDTAVYYCAMDLYSTSEYWGQGTLVTVSS VL: DIQMTQSPSSLSASVGDRVTITCKTSQNIERYLNWYQQKPGKAPKLLIYAASSLQSGVPSRFSGSGSGTDFTLTISSLQPEDFATYFCLQDNAWPLTFGQGTKVEIKR	–	–	2.78
anti-E-selectin antibody 0180 chimera (antibody, human IgG1, kappa, V domains shown, rat VH/VL on effector-null human IgG1 and human kappa) VH: EVQLQQSGAELGKPGTSVKLSCKVSGYKIRSSYMHWVNQRPGKGLEWIGRIDPANGNTIYGDKFKSKATLTSDTSSNTAYIQLSQLKSDDTAIYFCAIDIGTTFDYWGQGVMVTVSS VL: DIQMTQSPSFLSASVGDRVTINCKASQHINRYLNWYQQKLGEAPKLLIYDANNLQTGIPSRFSGSGSGTDFTLTISSLQPEDVATYFCLQHNSWPNTFGAGTKLELKR	0.01	> 133	–
anti-E-selectin antibody 0164 chimera (antibody, human IgG1, kappa, V domains shown, rat VH/VL on effector-null human IgG1 and human kappa) VH: EVQLQQSGAEFGKPGTSVKLSCKVSGYNIRSSYMHWVNQRPGKGLEWIGRIDPANGNTIYAEKFKIKAILTADSSSNTAYMQLSQLKSDDTAIYFCAMDLYSTSEYWGQGVMVTVSS VL: DIQMTQSPSFLSASVGDRVTINCKTSQNINRYLNWYQQKLGEAPKLLIYNANSLQTGIPSRFSASGSGTDFTLTINSLQPEDVATYFCLQDNSWPLTFGSGTKLEIKR	0.02	> 133	2.69
